The values below come from publication doi:10.1101/094961 (bioRxiv, 2017).

The experiment addresses RNAP β' subunit with 6his tag (rpoC-6his), in purified δ-containing RNAP (B. subtilis, UniProt P37871 1-1199). Put plainly: cross-linking.

Chain of RNAP β' subunit with 6his tag (rpoC-6his), in purified δ-containing RNAP (P37871 whole entry, stated change not applied): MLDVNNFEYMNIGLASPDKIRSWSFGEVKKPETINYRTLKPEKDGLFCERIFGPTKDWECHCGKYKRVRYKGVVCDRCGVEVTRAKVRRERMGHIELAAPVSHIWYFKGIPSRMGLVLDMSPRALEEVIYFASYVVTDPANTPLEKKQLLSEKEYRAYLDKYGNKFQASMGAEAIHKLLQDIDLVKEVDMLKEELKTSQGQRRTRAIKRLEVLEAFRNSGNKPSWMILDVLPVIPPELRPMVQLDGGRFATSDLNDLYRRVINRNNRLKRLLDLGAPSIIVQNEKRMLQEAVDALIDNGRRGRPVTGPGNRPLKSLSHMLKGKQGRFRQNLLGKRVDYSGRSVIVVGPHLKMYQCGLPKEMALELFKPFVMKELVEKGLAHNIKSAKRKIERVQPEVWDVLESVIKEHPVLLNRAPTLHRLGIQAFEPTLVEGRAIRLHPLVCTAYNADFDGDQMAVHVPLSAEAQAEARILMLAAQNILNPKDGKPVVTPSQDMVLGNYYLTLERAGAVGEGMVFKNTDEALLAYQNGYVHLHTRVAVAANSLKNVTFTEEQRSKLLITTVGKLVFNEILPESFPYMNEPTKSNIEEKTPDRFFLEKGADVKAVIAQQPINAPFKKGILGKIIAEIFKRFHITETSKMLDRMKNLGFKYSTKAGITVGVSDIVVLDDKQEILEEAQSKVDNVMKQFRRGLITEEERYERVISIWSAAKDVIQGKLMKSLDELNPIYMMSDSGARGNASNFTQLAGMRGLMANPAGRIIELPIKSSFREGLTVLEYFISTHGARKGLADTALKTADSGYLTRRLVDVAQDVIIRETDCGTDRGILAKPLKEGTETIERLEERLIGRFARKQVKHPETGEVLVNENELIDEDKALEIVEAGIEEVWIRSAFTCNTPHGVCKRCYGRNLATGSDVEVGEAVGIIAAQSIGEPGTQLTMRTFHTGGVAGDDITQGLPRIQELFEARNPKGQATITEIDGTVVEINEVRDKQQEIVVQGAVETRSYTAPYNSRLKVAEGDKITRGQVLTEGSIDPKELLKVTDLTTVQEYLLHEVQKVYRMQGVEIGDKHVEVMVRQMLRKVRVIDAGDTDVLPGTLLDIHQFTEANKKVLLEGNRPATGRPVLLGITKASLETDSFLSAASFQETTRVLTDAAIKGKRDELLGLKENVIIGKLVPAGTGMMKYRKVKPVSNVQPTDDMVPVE

B1: δ subunit (RpoE) of RNA polymerase (natural protein, UniProt P12464 1-173, looked up)
chain: MGIKQYSQEELKEMALVEIAHELFEEHKKPVPFQELLNEIASLLGVKKEELGDRIAQFYTDLNIDGRFLALSDQTWGLRSWYPYDQLDEETQPTVKAKKKKAKKAVEEDLDLDEFEEIDEDDLDLDEVEEELDLEADDFDEEDLDEDDDDLEIEEDIIDEDDEDYDDEEEEIK
Consider B1, for which the binding result was “binds”.
